Molecular target: D4 self-association region of P6 (amino acids 414-520), in pEG202 (Cauliflower mosaic virus isolate CM1841)
Test: two-hybrid

Full-length P6 with the D3b mutation V324A, in pJG4-5 (natural protein)
fold less β-galactosidase activity than the wild type: 9 fold
